The chains are these.
B1: Sex-determining transformer protein 2 (Caenorhabditis elegans), P34709 (parent)
chain: MKLKYNKLLVSVVIVTFVTFGLLLAECFGKSIDYQEKSIFPSFVSQGFFETRTNNEEYIIEKIAQTQENGVDMRSTLHFTQHGYLLNNISNLKIKFRQKTYTLNDVCFKPHITIFQQSSSSDQNEYPHYIQRLLLEMQRLSPCLIVTPLNCFYDIYRIHGEISNWNKNTDFLNRRLRNSYIEAIGENDERPYVKSNYGPSLIKSWADHMFDLPSKSFTNSTKDALFQKIKLWLLSIEPRQKTCAASIHSCDTPLDSEHYFNICTDMQSVDNFAEKKTKFKLEDVDEEFAMNLDCVDDQEQFIEWMQELEIRKMYSHVTEKPDYPNVVNQTCDKIFHDLNSTGIEFFDGSRSFSSTKSQFDTMQTEIVLLTPEMLLSAMQHSDFVNGFESIWTIEKAEELIHEFRLALKEETEKFKENRMSKMIRVTSRVLDNTVTTKLQSFSEKQTIHFVVNVHSLIVILFTIFVWSGAPLRSAFMFFVRDALTCLLFCFVCSTDGVIVLDTELIKYIIVLTLANLYFTTRSSFCTERLSRCIQREKRFPINSNFASLITVDTMTDSRQIQYFLSTVTKYQAAQDSYSNELFERFPKNWGCTSILIFPIVFVYWYFIDSNFDKICVSVLPSFCLAAGEELFAKNMFWKEREAMQAKQRLENEEQAESITGSSLEKLFAGNKPVSNTDKANIVKKSSIIRNQKPCLQDLSPGTYDVSNFMKYPHQASRIFREKIIGLYLRILKLRTLGVILCIPAILLIVISIGLLFIPVKRETLHTDSKQDDIFIEFEIFNFSTNWKIVNQNLKQFSEDIESIGTLYTISNWQKSFERFEQETNKNASAEWNILFKWINDEPINSAVTLFSEKSSGNQTIANPFKFRLRYGFDAKNETTVIEIVQKIDELLSKCSKNLSPKAVGVLYEHYHRIAVVWNLFAFNQLTTAGIFIILLSIITFIFAITPTIKATFLFSLLVVGTQIEVAALVHLFSLDHHQIYTNLALFAGFLAAWDPFCALLRYRRRILYKSETRRTPELASKRRVLLPIVATADIAQFFVLLITAFSILAIICSIVPELNIFFVPTVILIVIQIVAVFNSIIVSIATKQMFESEVRHYLHRDLRGSTTAVRVYNLVQKQRLASSLDEPQVELDEFSIKRSSPPCRYYAPPPKYSCKKRSRSSDEDEDSDPNQPGPSNRRSPKTGNKRVRGNGDNTELYIPNRYELIVSGKSVGGNTSAAWNGPGSTLEQNMNALEECFELGVDEYDFDEHDGDEGCELVQDMLDRERNLMNKRSTAQRRESRNIEKMKKSQENLDKEKSEEKISESKKNQDDSIESPNLPGTPANLPVDEPLPPVGRLYIVEHVLPEEYRRDPLTEPPSMEDCIRAHSDPNLPPHPRADQYPASFTRPMVEYCEDIYWTHRTGQLPPGLQVPRRPYDYYHITERTPPPEDLNWVPPAESPPIPIPQQAFDLLEERRRNHREQQDEAREGDLSDPEV
partner: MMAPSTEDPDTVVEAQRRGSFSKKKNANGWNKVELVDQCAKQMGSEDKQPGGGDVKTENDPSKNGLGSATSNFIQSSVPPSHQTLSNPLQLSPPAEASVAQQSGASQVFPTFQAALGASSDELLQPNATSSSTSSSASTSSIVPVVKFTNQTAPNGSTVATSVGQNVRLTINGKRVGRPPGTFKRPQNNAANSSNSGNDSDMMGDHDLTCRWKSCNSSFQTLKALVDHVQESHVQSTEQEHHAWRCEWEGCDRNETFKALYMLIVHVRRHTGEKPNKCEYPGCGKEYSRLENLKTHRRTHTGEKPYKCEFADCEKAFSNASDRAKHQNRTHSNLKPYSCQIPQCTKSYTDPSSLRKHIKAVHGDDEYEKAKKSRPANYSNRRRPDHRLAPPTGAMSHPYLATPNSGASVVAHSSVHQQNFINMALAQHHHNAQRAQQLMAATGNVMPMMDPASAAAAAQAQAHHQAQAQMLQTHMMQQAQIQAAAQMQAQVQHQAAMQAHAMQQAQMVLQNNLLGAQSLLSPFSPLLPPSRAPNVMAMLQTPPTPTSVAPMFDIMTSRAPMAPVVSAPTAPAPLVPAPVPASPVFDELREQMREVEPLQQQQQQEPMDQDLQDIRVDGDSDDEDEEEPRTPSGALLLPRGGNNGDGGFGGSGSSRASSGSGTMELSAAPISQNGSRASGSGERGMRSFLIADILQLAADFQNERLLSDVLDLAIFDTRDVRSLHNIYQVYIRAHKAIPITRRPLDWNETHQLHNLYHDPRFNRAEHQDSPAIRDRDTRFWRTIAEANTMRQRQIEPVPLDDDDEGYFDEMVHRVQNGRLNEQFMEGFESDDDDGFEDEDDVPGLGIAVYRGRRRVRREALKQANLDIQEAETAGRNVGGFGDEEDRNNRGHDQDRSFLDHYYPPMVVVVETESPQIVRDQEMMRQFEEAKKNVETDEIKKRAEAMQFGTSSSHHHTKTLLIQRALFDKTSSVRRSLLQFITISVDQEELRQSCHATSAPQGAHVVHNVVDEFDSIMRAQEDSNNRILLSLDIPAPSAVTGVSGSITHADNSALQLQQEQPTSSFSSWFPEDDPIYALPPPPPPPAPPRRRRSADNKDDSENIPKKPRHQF
B2: Sex-determining transformer protein 1 (Caenorhabditis elegans), P34708 (parent)
chain: B1 partner
partner: B1 chain

Variants of B1 are the subject of one assay. The settings on record: with tra1_caeel tra-1, P34708.
Turning to C1392Y;E1393K;R1400Q, the “effect of a mutation on the interaction” value was “decreasing interaction”.

In another assay the parent is B2. The note with it: with tra2_caeel tra-2, P34709.
Take L723F: the “effect of a mutation on the interaction” value is on record as “decreasing interaction”.

The record behind these values is IntAct's records for PubMed 11124807.
